Test results reported in patent US20200318066A1.

Key:
[1] = target: H-2Kb (MHC-I) presenting the ovalbumin epitope SIINFEKL (SEQ ID NO: 54) (mouse); experiment: flow cytometry, 25-D1.16 staining of T, B and NK cells in OVA-loaded splenocytes against SQZ only, 2 and 4 h after SQZ
[2] = target: H-2Kb (MHC-I) presenting the ovalbumin epitope SIINFEKL (SEQ ID NO: 54) (mouse); experiment: flow cytometry, 25-D1.16 staining of monocytes in OVA-loaded splenocytes against SQZ only, 2 and 4 h after SQZ

Which results are given for 25-D1.16 antibody?
increase in fluorescence intensity [1]: > 40%; increase in fluorescence intensity [2]: > 10%
